According to the supplement of paper PMC10567573:

B1: IKZF1 (parent)
chain: HIKLHSGEKPFKCHLCNYACRRRD

Variants of: B1
Assay: protein stability index of a GFP-peptide fusion (GPS, HEK-293T) (PSI 1-6); higher = more stable
Details: c terminus: a fixed tail appended
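Further: lentivirally expressed fusions sorted by FACS into six bins by GFP to DsRed ratio, PSI derived from sequencing read proportions per bin multiplied by bin number.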

First: HIKLHSGEVPFKCHLCNYACRRRD [K9V]
Second: HIKLHFGEKPFKCHLCNYACRRRD [S6F]
The protein stability index of the first is lower: 1.43 for the first, 2.19 for the second.

Going from HIKLHPGEKPFKCHLCNYACRRRD [S6P] to HIKLHTGEKPFKCHLCNYACRRRD [S6T], the protein stability index falls from 2.02 to 1.99.

First: HIKLHLGEKPFKCHLCNYACRRRD [S6L]
Second: HIKLHHGEKPFKCHLCNYACRRRD [S6H]
The protein stability index of the first is lower: 1.93 for the first, 1.96 for the second.

Compared with HIKLHQGEKPFKCHLCNYACRRRD [S6Q], HIKLHWGEKPFKCHLCNYACRRRD [S6W] is higher in protein stability index: 1.88 for the first, 2.93 for the second.

Going from HIKLHNGEKPFKCHLCNYACRRRD [S6N] to HIKLHAGEKPFKCHLCNYACRRRD [S6A], the protein stability index falls from 3.35 to 1.65.

Going from HIKLHRGEKPFKCHLCNYACRRRD [S6R] to HIKLHEGEKPFKCHLCNYACRRRD [S6E], the protein stability index rises from 2.24 to 3.3.

First: HIKLHGGEKPFKCHLCNYACRRRD [S6G]
Second: HIKLHYGEKPFKCHLCNYACRRRD [S6Y]
The protein stability index of the first is higher: 2.02 for the first, 1.79 for the second.

Going from HIKLHKGEKPFKCHLCNYACRRRD [S6K] to HIKLHDGEKPFKCHLCNYACRRRD [S6D], the protein stability index rises from 1.82 to 1.97.

Going from HIKLHMGEKPFKCHLCNYACRRRD [S6M] to HIKLHVGEKPFKCHLCNYACRRRD [S6V], the protein stability index falls from 2.13 to 1.16.

Going from HIKLHCGEKPFKCHLCNYACRRRD [S6C] to HIKLHIGEKPFKCHLCNYACRRRD [S6I], the protein stability index rises from 1.51 to 2.38.

Compared with HEKLHSGEKPFKCHLCNYACRRRD [I2E], HHKLHSGEKPFKCHLCNYACRRRD [I2H] is higher in protein stability index: 1.78 for the first, 2.3 for the second.

First: HNKLHSGEKPFKCHLCNYACRRRD [I2N]
Second: HRKLHSGEKPFKCHLCNYACRRRD [I2R]
The protein stability index of the first is higher: 2.14 for the first, 1.96 for the second.

Compared with HWKLHSGEKPFKCHLCNYACRRRD [I2W], HDKLHSGEKPFKCHLCNYACRRRD [I2D] is higher in protein stability index: 2.22 for the first, 2.5 for the second.

Going from HMKLHSGEKPFKCHLCNYACRRRD [I2M] to HTKLHSGEKPFKCHLCNYACRRRD [I2T], the protein stability index falls from 2.6 to 2.02.

First: HFKLHSGEKPFKCHLCNYACRRRD [I2F]
Second: HLKLHSGEKPFKCHLCNYACRRRD [I2L]
The protein stability index of the first is higher: 2.27 for the first, 2 for the second.

Going from HKKLHSGEKPFKCHLCNYACRRRD [I2K] to HGKLHSGEKPFKCHLCNYACRRRD [I2G], the protein stability index rises from 1.86 to 2.29.

Compared with HSKLHSGEKPFKCHLCNYACRRRD [I2S], HCKLHSGEKPFKCHLCNYACRRRD [I2C] is higher in protein stability index: 1.76 for the first, 2.44 for the second.

First: HPKLHSGEKPFKCHLCNYACRRRD [I2P]
Second: HVKLHSGEKPFKCHLCNYACRRRD [I2V]
The protein stability index of the first is higher: 2.13 for the first, 1.47 for the second.

Compared with HYKLHSGEKPFKCHLCNYACRRRD [I2Y], HQKLHSGEKPFKCHLCNYACRRRD [I2Q] is higher in protein stability index: 1.93 for the first, 2.32 for the second.

Compared with HIKLRSGEKPFKCHLCNYACRRRD [H5R], HIKLNSGEKPFKCHLCNYACRRRD [H5N] is higher in protein stability index: 1.55 for the first, 2.13 for the second.

Compared with HIKLESGEKPFKCHLCNYACRRRD [H5E], HIKLTSGEKPFKCHLCNYACRRRD [H5T] is lower in protein stability index: 2.37 for the first, 1.48 for the second.

First: HIKLMSGEKPFKCHLCNYACRRRD [H5M]
Second: HIKLWSGEKPFKCHLCNYACRRRD [H5W]
The protein stability index of the first is higher: 2.06 for the first, 1.8 for the second.

First: HIKLLSGEKPFKCHLCNYACRRRD [H5L]
Second: HIKLCSGEKPFKCHLCNYACRRRD [H5C]
The protein stability index of the first is lower: 1.7 for the first, 2.77 for the second.

Compared with HIKLQSGEKPFKCHLCNYACRRRD [H5Q], HIKLSSGEKPFKCHLCNYACRRRD [H5S] is lower in protein stability index: 1.78 for the first, 1.18 for the second.

Compared with HIKLVSGEKPFKCHLCNYACRRRD [H5V], HIKLDSGEKPFKCHLCNYACRRRD [H5D] is higher in protein stability index: 1.78 for the first, 2.12 for the second.

First: HIKLASGEKPFKCHLCNYACRRRD [H5A]
Second: HIKLYSGEKPFKCHLCNYACRRRD [H5Y]
The protein stability index of the first is higher: 3.14 for the first, 2.45 for the second.

First: HIKLISGEKPFKCHLCNYACRRRD [H5I]
Second: HIKLGSGEKPFKCHLCNYACRRRD [H5G]
The protein stability index of the first is higher: 2.57 for the first, 2.45 for the second.

Going from HIKLFSGEKPFKCHLCNYACRRRD [H5F] to HIKLPSGEKPFKCHLCNYACRRRD [H5P], the protein stability index falls from 1.97 to 1.94.

Compared with HIKLKSGEKPFKCHLCNYACRRRD [H5K], KIKLHSGEKPFKCHLCNYACRRRD [H1K] is lower in protein stability index: 2.27 for the first, 2.09 for the second.

Going from TIKLHSGEKPFKCHLCNYACRRRD [H1T] to WIKLHSGEKPFKCHLCNYACRRRD [H1W], the protein stability index rises from 1.17 to 1.93.

Going from YIKLHSGEKPFKCHLCNYACRRRD [H1Y] to CIKLHSGEKPFKCHLCNYACRRRD [H1C], the protein stability index falls from 1.95 to 1.83.

First: MIKLHSGEKPFKCHLCNYACRRRD [H1M]
Second: PIKLHSGEKPFKCHLCNYACRRRD [H1P]
The protein stability index of the first is lower: 1.81 for the first, 2.3 for the second.

First: AIKLHSGEKPFKCHLCNYACRRRD [H1A]
Second: QIKLHSGEKPFKCHLCNYACRRRD [H1Q]
The protein stability index of the first is lower: 1.05 for the first, 1.26 for the second.

Going from LIKLHSGEKPFKCHLCNYACRRRD [H1L] to RIKLHSGEKPFKCHLCNYACRRRD [H1R], the protein stability index rises from 2.04 to 2.13.

First: VIKLHSGEKPFKCHLCNYACRRRD [H1V]
Second: GIKLHSGEKPFKCHLCNYACRRRD [H1G]
The protein stability index of the first is lower: 1.72 for the first, 2 for the second.

Compared with NIKLHSGEKPFKCHLCNYACRRRD [H1N], FIKLHSGEKPFKCHLCNYACRRRD [H1F] is lower in protein stability index: 2.73 for the first, 2.4 for the second.

Compared with EIKLHSGEKPFKCHLCNYACRRRD [H1E], DIKLHSGEKPFKCHLCNYACRRRD [H1D] is lower in protein stability index: 2.21 for the first, 1.59 for the second.

First: IIKLHSGEKPFKCHLCNYACRRRD [H1I]
Second: HIKLHSGEKPAKCHLCNYACRRRD [F11A]
The protein stability index of the first is lower: 1.5 for the first, 2.75 for the second.

Compared with HIKTHSGEKPFKCHLCNYACRRRD [L4T], HIKKHSGEKPFKCHLCNYACRRRD [L4K] is higher in protein stability index: 1.63 for the first, 4.07 for the second.

Compared with HIKCHSGEKPFKCHLCNYACRRRD [L4C], HIKIHSGEKPFKCHLCNYACRRRD [L4I] is lower in protein stability index: 2.33 for the first, 1.72 for the second.

Compared with HIKNHSGEKPFKCHLCNYACRRRD [L4N], HIKVHSGEKPFKCHLCNYACRRRD [L4V] is lower in protein stability index: 1.87 for the first, 1.31 for the second.

First: HIKGHSGEKPFKCHLCNYACRRRD [L4G]
Second: HIKHHSGEKPFKCHLCNYACRRRD [L4H]
The protein stability index of the first is lower: 2.21 for the first, 4.08 for the second.

Going from HIKEHSGEKPFKCHLCNYACRRRD [L4E] to HIKMHSGEKPFKCHLCNYACRRRD [L4M], the protein stability index falls from 3.72 to 1.58.

First: HIKAHSGEKPFKCHLCNYACRRRD [L4A]
Second: HIKPHSGEKPFKCHLCNYACRRRD [L4P]
The protein stability index of the first is lower: 1.99 for the first, 2.19 for the second.

Going from HIKDHSGEKPFKCHLCNYACRRRD [L4D] to HIKSHSGEKPFKCHLCNYACRRRD [L4S], the protein stability index rises from 2.4 to 2.84.

Compared with HIKQHSGEKPFKCHLCNYACRRRD [L4Q], HIKFHSGEKPFKCHLCNYACRRRD [L4F] is lower in protein stability index: 4.68 for the first, 1.92 for the second.

Going from HIKYHSGEKPFKCHLCNYACRRRD [L4Y] to HIKRHSGEKPFKCHLCNYACRRRD [L4R], the protein stability index falls from 2.52 to 2.48.
